Data as given in the NTF2 design screens of Basanta et al. (2020).

Test: protease stability score; higher = more stable; yeast display proteolysis, trypsin and chymotrypsin;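 note: relative to predicted unfolded state with 0 unfolded-like and 1 meaning tenfold more protease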

## SEEREEFEHWAKLVVHLLLTGNWEDFVKLLDPDTRFRDEDEETVGREEVEKAVNRLLDRVDHIKSVHIRHLDVINGRAFMHGQLVGHVDGRETHTEVRIKLVVVNGRIKSLQIDYK
  protease stability score: 1.99

## SEEREKAERISRTLFFNFFTGDEDDWNKRADPTDRFIIGDKELVGMEEISKFLKHLRVHHEQLSDLRINLQGDKLHSHLDGYVDIEFNGRRRRTRVIIIIVVFKVNGRWTIEQFEVEFH
  protease stability score: 1.73

## SEERERVRKIHEWLVRFLETGDEESFNHLADPNMRLIVWYNGVNIVFIGRESWREFLRLFREEMRLHRIRVHHVDVQGEKVTSDTRNDGEVNGQRTEFETHVEVVLINGRLKLVLLEFK
  protease stability score: 2.33

## SEERHAVERYTEELARAISTGDEEKRLELLDPHVRYLQGDKHIHGRDEVWRHEHRQMEDLGVTRIEMRIRHIRIFNGRVEIEGEVRIGEFEMHFIIYVLKIDGRWIITQEEYS
  protease stability score: 0.393

## SEERHELERTLKRYQDALITGNEEQMEKLIDPNVRTRIDGVDLIGMELVIEELVEWLDRYPNVRIHSHIHEVRFQGDKADIDSRLHLIFDGQEYRLHTRIHIWKFNGRWVLTHSEID
  protease stability score: 0.884

## SEERHLEELMYKWVRQMIETGDEDLERKLADPHVRSDINGVDLHGREEMIKEIKRLEDWLGIDHREFKTITFINGRIHVHIKLNVNGKDIKSIHIYDVIDGRLKEVSVRFR
  protease stability score: 1.19

## SEERKELKDIADEIFERHLTGDWKTFLRLADPNVRLQVNGKDIHGREEVVRWLNEIRYHHLTIHDRTVVDGVVISDVEEDGQVNGQKSRYRVHYVFVVVDGRFKSIHVTIT
  protease stability score: 1.3

## SEERSRVLHYLSLFIHFLETGDWKALYELMDPDVRIHVGDFELHGRHIFVRHLRDLGIKHVEESIRVRRMILIDGVIHMDGHLERHLIVGDKRVDERHEVHEVILKVDGKWFVHSIHVK
  protease stability score: 1.14

## SEESEHEEIIAEVTLELLATGDWRTLYELFDPNVRVHVGDKRSIGREQFVKIWKEFLEKFKNVVYKFKDIKWINGVVHIHMTLEYNGRRIEVNIHNFVYDGKIEHIHIEFKHL
  protease stability score: 1.66

## SEESEKLERMMRLIMHLLWTGDEETFKRLADPDTRFIYGDFEVHGREDVSRMWIKLLNELRIHSLHVEEVHTIDGRIHAKTEVDGRYNGQHERTKLELIIVIINGRIHTVEIRPK
  protease stability score: 1.22

## SEETEETERVEREISHARLTGDEQFLKEMLDPNTRLLINGVILVGREALEHFVREMRVERVEVKDVRVQGDKLHIDTTSDVHYNGRRWTIKTHLIMVKVDGRWLMESVEFK
  protease stability score: 1.62

## SEETEFAKEMLDIIFNLLRTGDWEYLVRLMDPHVRVIYGDKVTHGRDIIQYMHEHIRIRHLEFRHFDVIGDKINVDGRMEGEVNGRHDKTEMHIILLKINGRWSLHSIEIR
  protease stability score: 1.39

## SEETEHIQKVMKDYIELVLTGDEEKWIHLADPHTRLILLFDGKEIHTHGWDRLIKVWQRIMEELGVDKVEIRMERVRSYGDKAESDVESRYNGRTHETEVTILVIDGRIKMVEVRFH
  protease stability score: 1.14

## SEETEIIERAMKILLEILETGDEDRQRELMDPHYRLLIGDKVFHGREWAIKWAREIRVDRVELEDREIQGEKLLLHGHIHIRVGDKHHTMEVLIIVEKIDGRWRTHSRHVK
  protease stability score: 0.651

## SEETEYLRLAIELILNETRTGDEHTFMENADPDAKLNFNGVHLHGMEEVTRRMHELWEELRIRHFELHDVSHVDGRLYVHIRLDVDVNGQKRTFRSEIVSEKINGKWYYKYMTIV
  protease stability score: 1.27

## SEETKEKHDFVEEWRHFLETGDEHELTRMIDPNVRVIINGQEHHGREAFEEMLKRIDVIHHVVIRKERSINGVIRLNFEVDGVINGRRHRTEFHIIVLKINGRWLIHQISIH
  protease stability score: 2.04

## SEETKNLEHWAKRFEHALETGDEEVLTKLFDPNVRLHFNGVNIHGWELYRKYHQRVDHVHFRIRSVHVYDGRVDMHTEVENRQGDKSHRMDTRLFAIKVNGVWLIESFEVH
  protease stability score: 0.486

## SEEVEEAVTKMRHIWEHFLTGDEDTLKELVDPTVRLEQGDKEYHGRDFYIKYSEHIRRRFKNLKIIERDMKFTVYNGKAQMQFDGELRVGDKSTEVVIFLHMRKIDGRWFIEAERIEIR
  protease stability score: 1.38

## SEEVEHAEKVMRHTVHNIETGDEETWSNLADPNVLFQQGEFNLHGRELMFEWVRKYYEKIKNARIEIEDVRVFDGQIEFDVTWRVGDKHLKVHLHIEVINGRITEVRVDEK
  protease stability score: 0.98

## SEEYENAEKLTHHLTEILQTGDEQKLHELVDPHVKIHVDGVELHGMERYQELVDHWRIDSHTLHDFKIIGDKARVDSRVILTIGDKKERISLRFILVKIDGQWLNHEVEFN
  protease stability score: 1.79
